# The supplement of paper PMC9112550, “Optimization of the antimicrobial peptide Bac7 by deep mutational scanning” (BMC Biology, 2022)
# Test system: Escherichia coli TOP10
# Experiment: shrunken log2 fold change of peptide-encoding DNA abundance (4.5 h post-induction vs induction); higher = less antimicrobial activity (less host growth inhibition)
# Conditions: time post-induction: 4.5 h; library: site-saturation at positions 5, 18, 19, 20
# 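Also: peptides expressed intracellularly from a pBAD plasmid library in pooled LB shake-flask culture, induced with 0.3% L-arabinose, DNA abundance read by NGS, three biological replicates, DESeq2 with apeglm shrinkage.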
row,Sequence,shrunken log2 fold change
1,RRIRIRPPRLPRPRPRPKEMPRP,-0.297
2,RRIRMRPPRLPRPRPRPRFEPRP,0.36
3,RRIRMRPPRLPRPRPRPYIPPRP,-1.28
4,RRIRSRPPRLPRPRPRPTSCPRP,-0.0946
5,RRIRSRPPRLPRPRPRPGGYPRP,2.83
6,RRIRKRPPRLPRPRPRPDHEPRP,-0.013
7,RRIRARPPRLPRPRPRPHHIPRP,-0.345
8,RRIRKRPPRLPRPRPRPHHSPRP,-0.298
9,RRIRHRPPRLPRPRPRPSHSPRP,-0.577
10,RRIRHRPPRLPRPRPRPRCDPRP,0.128
11,RRIRWRPPRLPRPRPRPPCSPRP,-0.00461
12,RRIRWRPPRLPRPRPRPPKHPRP,0.272
13,RRIRWRPPRLPRPRPRPMNPPRP,-0.153
14,RRIRWRPPRLPRPRPRPKHIPRP,-0.41
15,RRIRGRPPRLPRPRPRPKHNPRP,0.203
16,RRIRNRPPRLPRPRPRPDHLPRP,-0.0163
17,RRIRWRPPRLPRPRPRPRGDPRP,1.03
18,RRIRHRPPRLPRPRPRPFTGPRP,-0.171
19,RRIRKRPPRLPRPRPRPLPFPRP,-0.11
20,RRIRKRPPRLPRPRPRPIAIPRP,-0.282
21,RRIRYRPPRLPRPRPRPHDTPRP,-0.313
22,RRIRCRPPRLPRPRPRPEYTPRP,-0.139
23,RRIRKRPPRLPRPRPRPTNYPRP,-0.114
24,RRIRIRPPRLPRPRPRPAHGPRP,0.188
25,RRIRMRPPRLPRPRPRPAAQPRP,1.12

row,Sequence,shrunken log2 fold change
1,RRIRMRPPRLPRPRPRPPGQPRP,1.24
2,RRIRKRPPRLPRPRPRPFSNPRP,-0.411
3,RRIRLRPPRLPRPRPRPMEPPRP,0.101
4,RRIRERPPRLPRPRPRPTEAPRP,0.0834
5,RRIRPRPPRLPRPRPRPKTAPRP,-0.109
6,RRIRTRPPRLPRPRPRPEMGPRP,-0.0368
7,RRIRFRPPRLPRPRPRPSVQPRP,-0.241
8,RRIRTRPPRLPRPRPRPKEHPRP,-0.174
9,RRIRWRPPRLPRPRPRPIGGPRP,-0.0334
10,RRIRKRPPRLPRPRPRPHSQPRP,-0.142
11,RRIRGRPPRLPRPRPRPCCHPRP,0.345
12,RRIRWRPPRLPRPRPRPMAAPRP,0.318
13,RRIRMRPPRLPRPRPRPTRIPRP,0.447
14,RRIRRRPPRLPRPRPRPFVGPRP,-0.229
15,RRIRGRPPRLPRPRPRPVDCPRP,0.496
16,RRIRPRPPRLPRPRPRPIRVPRP,-0.262
17,RRIRSRPPRLPRPRPRPDRPPRP,-0.0605
18,RRIRRRPPRLPRPRPRPPILPRP,-0.1
19,RRIRLRPPRLPRPRPRPWQNPRP,-0.195
20,RRIRERPPRLPRPRPRPNANPRP,0.343
21,RRIRMRPPRLPRPRPRPVTQPRP,0.317
22,RRIRSRPPRLPRPRPRPPSHPRP,0.103
23,RRIRGRPPRLPRPRPRPHPPPRP,0.759
24,RRIRHRPPRLPRPRPRPPVKPRP,0.0106
25,RRIRRRPPRLPRPRPRPFTFPRP,-0.247

row,Sequence,shrunken log2 fold change
1,RRIRERPPRLPRPRPRPPECPRP,0.0263
2,RRIRLRPPRLPRPRPRPTGSPRP,-0.0138
3,RRIRERPPRLPRPRPRPQDIPRP,-0.135
4,RRIRLRPPRLPRPRPRPREFPRP,0.463
5,RRIRVRPPRLPRPRPRPAHEPRP,0.205
6,RRIRNRPPRLPRPRPRPCPFPRP,-0.208
7,RRIRGRPPRLPRPRPRPRVTPRP,0.744
8,RRIRSRPPRLPRPRPRPVSYPRP,-0.0884
9,RRIRLRPPRLPRPRPRPWGDPRP,-0.176
10,RRIRIRPPRLPRPRPRPSALPRP,-0.832
11,RRIRQRPPRLPRPRPRPAPNPRP,0.561
12,RRIRYRPPRLPRPRPRPVAPPRP,-0.0629
13,RRIRHRPPRLPRPRPRPWPTPRP,0.103
14,RRIRKRPPRLPRPRPRPYGVPRP,0.0715
15,RRIRDRPPRLPRPRPRPFKYPRP,0.0966
16,RRIRWRPPRLPRPRPRPYDWPRP,-0.0803
17,RRIRRRPPRLPRPRPRPVHYPRP,0.0593
18,RRIRGRPPRLPRPRPRPHVDPRP,0.0583
19,RRIRDRPPRLPRPRPRPMPWPRP,-0.0438
20,RRIRWRPPRLPRPRPRPCIYPRP,-0.162
21,RRIRERPPRLPRPRPRPMFLPRP,-0.206
22,RRIRYRPPRLPRPRPRPNRIPRP,-0.815
23,RRIRFRPPRLPRPRPRPWMEPRP,-0.706
24,RRIRRRPPRLPRPRPRPHFAPRP,0.382
25,RRIRSRPPRLPRPRPRPWDVPRP,0.166

row,Sequence,shrunken log2 fold change
1,RRIRNRPPRLPRPRPRPWDDPRP,0.0288
2,RRIRTRPPRLPRPRPRPMDEPRP,-0.219
3,RRIRPRPPRLPRPRPRPLALPRP,0.193
4,RRIRWRPPRLPRPRPRPFISPRP,-0.174
5,RRIRGRPPRLPRPRPRPQFYPRP,0.0417
6,RRIRLRPPRLPRPRPRPMETPRP,0.483
7,RRIRRRPPRLPRPRPRPIVSPRP,-0.221
8,RRIRIRPPRLPRPRPRPPMKPRP,-0.789
9,RRIRRRPPRLPRPRPRPLVQPRP,0.355
10,RRIRFRPPRLPRPRPRPVKKPRP,0.166
11,RRIRRRPPRLPRPRPRPDLWPRP,0.676
12,RRIRMRPPRLPRPRPRPTHWPRP,0.864
13,RRIRNRPPRLPRPRPRPLHGPRP,-0.0305
14,RRIRCRPPRLPRPRPRPWGSPRP,-0.151
15,RRIRFRPPRLPRPRPRPYMVPRP,-0.953
16,RRIRERPPRLPRPRPRPYRWPRP,-0.0887
17,RRIRVRPPRLPRPRPRPMISPRP,-0.237
18,RRIRIRPPRLPRPRPRPQRVPRP,-0.406
19,RRIRERPPRLPRPRPRPSRLPRP,0.0431
20,RRIRNRPPRLPRPRPRPMMSPRP,0.0191
21,RRIRCRPPRLPRPRPRPEYHPRP,-0.222
22,RRIRTRPPRLPRPRPRPITWPRP,-0.252
23,RRIRIRPPRLPRPRPRPIPPPRP,0.112
24,RRIRMRPPRLPRPRPRPKYLPRP,-0.278
25,RRIRRRPPRLPRPRPRPNTTPRP,-0.283

row,Sequence,shrunken log2 fold change
1,RRIRWRPPRLPRPRPRPYKRPRP,-0.977
2,RRIRERPPRLPRPRPRPEDWPRP,0.351
3,RRIRPRPPRLPRPRPRPYMCPRP,-0.714
4,RRIRTRPPRLPRPRPRPFITPRP,-0.689
5,RRIRTRPPRLPRPRPRPLVEPRP,-0.0326
6,RRIRWRPPRLPRPRPRPCKEPRP,-0.125
7,RRIRLRPPRLPRPRPRPTDWPRP,0.947
8,RRIRRRPPRLPRPRPRPWDLPRP,-0.04
9,RRIRDRPPRLPRPRPRPKIGPRP,-0.0266
10,RRIRQRPPRLPRPRPRPDFCPRP,-0.129
11,RRIRVRPPRLPRPRPRPPGDPRP,0.12
12,RRIRMRPPRLPRPRPRPRWSPRP,0.803
13,RRIRDRPPRLPRPRPRPSTVPRP,0.154
14,RRIRNRPPRLPRPRPRPHLNPRP,-0.599
15,RRIRLRPPRLPRPRPRPFESPRP,-0.168
16,RRIRSRPPRLPRPRPRPWRAPRP,0.183
17,RRIRRRPPRLPRPRPRPHERPRP,0.225
18,RRIRVRPPRLPRPRPRPYVMPRP,-0.619
19,RRIRRRPPRLPRPRPRPWMYPRP,-0.305
20,RRIRFRPPRLPRPRPRPKDPPRP,0.216
21,RRIRDRPPRLPRPRPRPGHQPRP,0.137
22,RRIRSRPPRLPRPRPRPCEPPRP,-1.02
23,RRIRNRPPRLPRPRPRPKLEPRP,0.0965
24,RRIRYRPPRLPRPRPRPLDRPRP,-0.182
25,RRIRFRPPRLPRPRPRPTYQPRP,-0.393

row,Sequence,shrunken log2 fold change
1,RRIRTRPPRLPRPRPRPMAAPRP,0.0975
2,RRIRARPPRLPRPRPRPTGQPRP,0.65
3,RRIRIRPPRLPRPRPRPDSRPRP,-0.0316
4,RRIRFRPPRLPRPRPRPWDPPRP,-0.78
5,RRIRWRPPRLPRPRPRPEIVPRP,-0.00443
6,RRIRYRPPRLPRPRPRPWCSPRP,-0.504
7,RRIRHRPPRLPRPRPRPHHRPRP,-0.257
8,RRIRLRPPRLPRPRPRPKLQPRP,0.356
9,RRIRWRPPRLPRPRPRPWCVPRP,-0.032
10,RRIRGRPPRLPRPRPRPDVDPRP,1.82
11,RRIRERPPRLPRPRPRPYCWPRP,-0.509
12,RRIRIRPPRLPRPRPRPANYPRP,-0.33
13,RRIRERPPRLPRPRPRPDEWPRP,-0.215
14,RRIRVRPPRLPRPRPRPLTCPRP,-0.187
15,RRIRQRPPRLPRPRPRPYKTPRP,-0.0141
16,RRIRLRPPRLPRPRPRPFRGPRP,-0.0479
17,RRIRSRPPRLPRPRPRPQTTPRP,-0.237
18,RRIRMRPPRLPRPRPRPFPVPRP,-0.175
19,RRIRQRPPRLPRPRPRPTGQPRP,0.146
20,RRIRDRPPRLPRPRPRPPAWPRP,0.811
21,RRIRKRPPRLPRPRPRPRGRPRP,1.04
22,RRIRSRPPRLPRPRPRPPAAPRP,1.1
23,RRIRNRPPRLPRPRPRPAASPRP,0.739
24,RRIRFRPPRLPRPRPRPHYGPRP,0.0398
25,RRIRCRPPRLPRPRPRPSVRPRP,-0.362
